Data: US20220281973A1 (TRUEBINDING, published 2022)

T1: human LRIG1 extracellular domain fused to a linker-spaced 6-histidine tag, LRIG1-ECD-His (R&D systems, … (human, UniProt Q96JA1 35-794))
T1 construct: Bought protein; also called human LRIG1-His; hLRIG1-His; not shown: linker-spaced 6-histidine tag
T1 sequence: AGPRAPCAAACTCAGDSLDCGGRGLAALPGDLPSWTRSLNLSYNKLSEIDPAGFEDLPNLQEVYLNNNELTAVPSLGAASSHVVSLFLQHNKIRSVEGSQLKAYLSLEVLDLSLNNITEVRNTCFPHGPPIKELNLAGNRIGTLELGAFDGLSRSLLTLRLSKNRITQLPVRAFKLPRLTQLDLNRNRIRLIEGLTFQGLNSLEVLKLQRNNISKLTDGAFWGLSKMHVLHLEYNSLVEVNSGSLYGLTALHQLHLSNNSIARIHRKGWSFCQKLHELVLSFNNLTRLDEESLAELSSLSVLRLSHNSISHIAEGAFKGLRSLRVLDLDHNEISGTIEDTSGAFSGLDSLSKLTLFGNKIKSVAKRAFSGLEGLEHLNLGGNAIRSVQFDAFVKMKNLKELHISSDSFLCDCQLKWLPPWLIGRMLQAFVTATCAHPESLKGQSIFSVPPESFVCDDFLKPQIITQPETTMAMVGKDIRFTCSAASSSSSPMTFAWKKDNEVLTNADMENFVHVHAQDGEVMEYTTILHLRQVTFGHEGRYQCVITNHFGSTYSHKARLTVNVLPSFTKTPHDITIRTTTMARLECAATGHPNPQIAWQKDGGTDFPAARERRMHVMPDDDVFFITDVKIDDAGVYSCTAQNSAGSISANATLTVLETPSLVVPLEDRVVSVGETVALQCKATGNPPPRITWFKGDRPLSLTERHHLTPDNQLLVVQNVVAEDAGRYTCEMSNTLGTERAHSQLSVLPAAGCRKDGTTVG

T2: hLRIG1 Peptide 69 (human)
T2 construct: 20 amino acid peptide of the LRIG1 peptide library
T2 peptide: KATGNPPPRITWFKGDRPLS

T3: hLRIG1 Peptide 70 (human)
T3 construct: 20 amino acid peptide of the LRIG1 peptide library
T3 peptide: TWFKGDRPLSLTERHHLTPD

T4: hLRIG1 Peptide 71 (human)
T4 construct: 20 amino acid peptide of the LRIG1 peptide library
T4 peptide: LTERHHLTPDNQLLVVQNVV

B1: 802.5G6.2B11 (antibody, V domains shown)
VH: EVQLQQSGAELVRPGASVKLSCTASGFNIKDDYLHWVKQRPEQGLEWIGWIDPEKGDTECASKFQGKATITVDTSSNTAYLQLSSLTSEDTAVYFCTTGSTVWGQGTTLTVSS
VL: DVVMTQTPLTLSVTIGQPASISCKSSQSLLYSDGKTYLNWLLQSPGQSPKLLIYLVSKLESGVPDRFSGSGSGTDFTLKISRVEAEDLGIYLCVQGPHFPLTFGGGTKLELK
notes: Mouse hybridoma monoclonal
B2: 802.5G6.2B8 (antibody, V domains shown)
VH: EVHLVESGGGLMKPGGSLKLSCAASGFTFSSYAMSWVRQTPEKRLEWVATISDGGSYTYYPDNVKGRFTISRDNAKNNLYLQMSRLKSEDTAMYYCSRAGSTVVNFGYWGQGTTLTVSS
VL: DIVMTQTPLSLPVSLGDQASISCRSSQNIAHSNGNTYLEWYLQKPGQSPQLLIYKVSNRFSGVPDRFSGSGSGTDFTLKISRVEAEDLGVYYCFQGSHVPLTFGAGTKLELK
notes: Mouse hybridoma monoclonal

Legend:
[1] = target: T1, human LRIG1 extracellular domain fused …; test: LRIG1 ECD ELISA-positive hybridoma antibodies tested in blocking ELISA on plate-bound LRIG1-ECD-His
Method: Positively scoring wells were evaluated for the ability to block association of LRIG1 and VISTA. To identify LRIG1-targeted antibodies with the ability to block the interaction of LRIG1 and VISTA, purified LRIG1 and VISTA proteins were incubated in the presence of LRIG1-immunization hybridoma supernatants described above, or without antibody, and protein interaction was evaluated by ELISA. Purified human LRIG1 extracellular domain fused to a HIS tag (R&D Systems) was diluted in phosphate buffered saline (PBS) (Corning) to a concentration of 3 μg/ml and 100 μl was added to each well of a 96-well ELISA plate (Thermo Fisher, 44-2404-21). After incubating the plate at 4° C. overnight, the plate was washed three times with 300 μl of PBS with 0.05% TWEEN (VWR) (PBST) per well. The plate was then blocked for an hour with 200 μl of 2% bovine serum albumin (BSA) (Sigma) in PBST per well at room temperature with gentle rocking. Thereafter, the 2% BSA in PBST was removed and 50 μl of hybridoma supernatant diluted to 3.3 ug/mL was added to the wells. The plate was incubated for 10 minutes at room temperature with gentle rocking. Afterwards, 100 ul of 50 nM oligomerized VISTA in 100 ul PBS buffer was added per well. VISTA oligomerization was performed by Klickmer formation. Briefly, 5 nM Klickmer (Immudex) was incubated with 200 nM hVISTA-Fc-Avi-Biotin in PBS and incubated for one hour. The plate was incubated for an hour at room temperature with gentle rocking. Thereafter, the plate was washed three times with 300 μl of PBST per well, and 100 μl of avidin-HRP (1:1000) (Jackson ImmunoResearch) was then added to each well and the plate was incubated at room temperature for 30 minutes with gentle rocking. Thereafter, the plate was washed three times with 300 μl of PBST per well. 100 μl of TMB substrate (Fisher Scientific, 34029) was then added to each well. The reaction was stopped with 50 μl of 1 M HCl (VWR) per well. The plate was read using a spectrophotometer (Molecular Devices) at absorbance of 450 nm. Percent blockade of LRIG1-VISTA interaction was calculated as the fraction of signal obtained in each experimental samples of the no antibody sample less background signal.

hLRIG1 Peptide 69 = target: T2, hLRIG1 Peptide 69; test: peptide ELISA of Example 2, as told in Example 3
Method: (§1) To identify the epitopes to which LRIG1 antibodies with and without VISTA-LRIG1 blocking activity bound, a library of 20 amino acid peptides representing portions of LRIG1 was produced, and the ability to bind LRIG1 antibodies was evaluated by ELISA. At least 2 ug/ml of hLRIG1 peptide in 50 μl of PBS or 0.1 ug/ml of full-length human LRIG1 protein (R&D Systems) in 100 μl of PBS was added to the wells of a 96-well ELISA plate (Thermo Fisher, 44-2404-21). After incubating the plate at 4° C. overnight, the plate was washed three times with 300 μl of PBST per well. The plate was then blocked for an hour with 200 μl of 2% BSA in PBST per well at room temperature with gentle rocking. Thereafter, the 2% BSA in PBST was removed and 100 μl of 0.1 ug/ml of antibody in 2% BSA in PBST was added to the wells. The plate was incubated for an hour at room temperature with gentle rocking and then washed three times with 300 μl of PBST per well. Afterwards, 100 μl of anti-mouse IgG-HRP (1:4000) (Jackson ImmunoResearch) or anti-rat IgG HRP (1:4000) (Jackson ImmunoResearch) was added to the wells. The plate was incubated for 30 minutes at room temperature with gentle rocking and then washed three times with 300 μl of PBST per well. 100 μl of TMB substrate (Fisher Scientific, 34029) was then added to each well. The reaction was stopped with 50 μl of 1 M HCl (VWR) per well. The plate was read using a plate reader (Molecular Devices) at absorbance of 450 nm, and signal greater than 0.25 OD was considered evidence of peptide binding.

hLRIG1 Peptide 70 = target: T3, hLRIG1 Peptide 70; test: peptide ELISA of Example 2, as told in Example 3
Method: as §1

hLRIG1 Peptide 71 = target: T4, hLRIG1 Peptide 71; test: peptide ELISA of Example 2, as told in Example 3
Method: as §1

| binding result [1] | binding result (hLRIG1 Peptide 69) | binding result (hLRIG1 Peptide 70) | binding result (hLRIG1 Peptide 71) | Binder |
| --- | --- | --- | --- | --- |
| binds | binds |  |  | B1 |
| binds |  | binds | binds | B2 |
